Reference: patent US7892771B2, “Crystal structure of soluble glutaminyl cyclase” (Academia Sinica, priority 2006, dated 2011)
Substitutions are numbered along the chain they refer to. Names and notes keep the numbering of the source.

B1: R54W: site-directed mutant R54W of human QC (protein)
chain: MAGGRHRRVVGTLHLLLLVAALPWASRGVSPSASAWPEEKNYHQPAILNSSALWQIAEGTSISEMWQNDLQPLLIERYPGSPGSYAARQHIMQRIQRLQADWVLEIDTFLSQTPYGYRSFSNIISTLNPTAKRHLVLACHYDSKYFSHWNNRVFVGATDSAVPCAMMLELARALDKKLLSLKTVSDSKPDLSLQLIFFDGEEAFLHWSPQDSLYGSRHLAAKMASTPHPPGARGTSQLHGMDLLVLLDLIGAPNPTFPNFFPNSARWFERLQAIEHELHELGLLKDHSLEGRYFQNYSYGGVIQDDHIPFLRRGVPVLHLIPSPFPEVWHTMDDNEENLDESTIDNLNKILQVFVLEYLHL
B2: K144A: site-directed mutant K144A of human QC (protein)
chain: B1 chain with W54R, K144A
B3: F146A: site-directed mutant F146A of human QC (protein)
chain: B1 chain with W54R, F146A
B4: E201D: site-directed mutant E201D of human QC (protein)
chain: B1 chain with W54R, E201D
B5: W207L: site-directed mutant W207L of human QC (protein)
chain: B1 chain with W54R, W207L
B6: W207F: site-directed mutant W207F of human QC (protein)
chain: B1 chain with W54R, W207F
B7: Q304L: site-directed mutant Q304L of human QC (protein)
chain: B1 chain with W54R, Q304L
B8: F325A: site-directed mutant F325A of human QC (protein)
chain: B1 chain with W54R, F325A
B9: W329A: site-directed mutant W329A of human QC (protein)
chain: B1 chain with W54R, W329A

Test system: human QC
Assay: Kinetic parameters of wild-type and mutant human QC
Type: biochemical
Conditions: pH 8.0

| Molecule | Km | kcat |
| --- | --- | --- |
| B1 | 760 ± 40 µM | 7.35 ± 0.26 s⁻¹ |
| B2 | 1470 ± 20 µM | 11.67 ± 0.34 s⁻¹ |
| B3 | 820 ± 160 µM | 7.91 ± 2.14 s⁻¹ |
| B4 | 12600 ± 2980 µM | 0.87 ± 0.28 s⁻¹ |
| B5 | 1770 ± 70 µM | 0.43 ± 0.01 s⁻¹ |
| B6 | 590 ± 50 µM | 2.32 ± 0.07 s⁻¹ |
| B7 | 1160 ± 90 µM | 9.39 ± 1.18 s⁻¹ |
| B8 | 4670 ± 240 µM | 12.91 ± 0.06 s⁻¹ |
| B9 | 29500 ± 2290 µM | 1.35 ± 0.07 s⁻¹ |
